Results taken from US9969998B2, “Compositions of adenosine deaminase-2 (ADA2), variants thereof and methods of using same” (Halozyme, Inc., priority 2014, dated 2018).

Experiment: Adenosine deaminase (ADA) enzymatic activity assay kit
Assay type: biochemical
Conditions: for adenosine deaminase activity mU/mL / ΔA/min, adenosine deaminase activity: protein diluted to 5 μg/mL, serially diluted 2 fold (Table 21); for % activity vs. WT: relative to rHuADA2 WT (Table 21)
Protocol: Adenosine deaminase activity was determined using an adenosine deaminase (ADA) assay kit (Genway, San Diego, Calif.; Cat. No. BQ014EALD) with minor modifications. The ADA assay is based on the enzymatic deamination of adenosine to inosine, which is converted to hypoxanthine by purine nucleoside phosphorylase (PNP). Hypoxanthine is then converted to uric acid and hydrogen peroxide by xanthine oxidase (XOD). Hydrogen peroxide is further reacted with N-Ethyl-N-(2-hydroxy-3-sulfopropyl)-3-methylaniline (EHSPT) and 4-aminoantipyrine (4-AA) in the presence of peroxidase (POD) to generate quinone dye, which is monitored in a kinetic manner.
Briefly, 5 μL samples in duplicates (at appropriate dilutions to measure steady-state, non-saturating enzyme activity) were added to 120 μL R1 reagent (provided by the manufacturer; 50 mM Tris HCL, pH 8.0, 2 mM 4-AA, 0.1 U/mL PNP, 0.2 U/mL XOD, 0.6 U/mL peroxidase) in a 96 well plate, according to manufacturer's instructions. The mixtures were incubated at 37° C. for approximately 5 min and 60 μL of R2 reagent (provided by the manufacturer; 50 mM Tris HCl, pH 4.0, 10 mM Adenosine, 2 mM EHSPT) was added to the mixtures. Then, change in absorbance (AA) at 556 nm over time at 37° C. was measured. One unit of ADA is the amount of ADA that generates one μmole of inosine from adenosine per minute at 37° C. Adenosine deaminase activity in mU/mL was calculated using the following formula: 1 mU/mL=(ΔA/min×Tv)/(Sv×ϵ×1) • where Tv=total volume (185 μL), Sv=sample volume (5 μL), ϵ=32.2×10^−3 μM^−1 cm^−1, 1=0.5 cm.
Adenosine deaminase activity of WT rHuADA2 and variants tested above were determined using the adenosine deaminase activity (ADA) assay described in Example 4. Activity was assessed on purified rHuADA2 WT and variants that were diluted to 5 μg/mL, and then serially diluted 2 fold to generate 4 measurements.
Adenosine deaminase activity of PEGylated rHuADA2 and variants was assessed using the method described in Example 4, and compared to the activity of the corresponding non-PEGylated form.
Selected candidate variants described in Table 8 above, containing an amino acid substitution in a residue that play a role in enzymatic activity, were assessed for their adenosine deaminase activity using the method described in Example 4. To perform the experiments, purified WT rHuADA2 and tested variants were prepared at 5 μg/mL concentration to normalize the amount of protein in each experiment.

Row | % activity vs. WT | % of WT activity (purified protein at 5 μg/mL, compared to WT-ADA2) | Molecule | enzymatic activity relative to WT rHuADA2 | adenosine deaminase activity mU/mL | ΔA/min, adenosine deaminase activity | Adenosine deaminase activity mU/ml (purified protein at 5 μg/mL) | Adenosine deaminase activity ΔA/min (purified protein at 5 μg/mL)
1 | 125.5% | – | K455D: ADA2 variant SEQ ID NO:26 (protein, human ADA2 K452D, mature numbering) IDETRAHLLLKEKMMRLGGRLVLNTKEELANERLMTLKIAEMKEAMRTLIFPPSMHFFQAKHLIERSQVFNILRMMPKGAALHLHDIGIVTMDWLVRNVTYRPHCHICFTPRGIMQFRFAHPTPRPSEKCSKWILLEDYRKRVQNVTEFDDSLLRNFTLVTQHPEVIYTNQNVVWSKFETIFFTISGLIHYAPVFRDYVFRSMQEFYEDNVLYMEIRARLLPVYELSGEHHDEEWSVKTYQEVAQKFVETHPEFIGIKIIYSDHRSKDVAVIAESIRMAMGLRIKFPTVVAGFDLVGHEDTGHSLHDYKEALMIPAKDGVKLPYFFHAGETDWQGTSIDRNILDALMLNTTRIGHGFALSKHPAVRTYSWKKDIPIEVCPISNQVLKLVSDLRNHPVATLMATGHPMVISSDDPAMFGAKGLSYDFYEVFMGIGGMKADLRTLKQLAMNSIDYSTLLESEKNTFMEIWKKRWDKFIADVATK | improved enzymatic activity | 97.9 mU/mL | 42.6 | – | –
2 | 18% | – | K455A: ADA2 variant SEQ ID NO:25 (protein, human ADA2 K452A, mature numbering) IDETRAHLLLKEKMMRLGGRLVLNTKEELANERLMTLKIAEMKEAMRTLIFPPSMHFFQAKHLIERSQVFNILRMMPKGAALHLHDIGIVTMDWLVRNVTYRPHCHICFTPRGIMQFRFAHPTPRPSEKCSKWILLEDYRKRVQNVTEFDDSLLRNFTLVTQHPEVIYTNQNVVWSKFETIFFTISGLIHYAPVFRDYVFRSMQEFYEDNVLYMEIRARLLPVYELSGEHHDEEWSVKTYQEVAQKFVETHPEFIGIKIIYSDHRSKDVAVIAESIRMAMGLRIKFPTVVAGFDLVGHEDTGHSLHDYKEALMIPAKDGVKLPYFFHAGETDWQGTSIDRNILDALMLNTTRIGHGFALSKHPAVRTYSWKKDIPIEVCPISNQVLKLVSDLRNHPVATLMATGHPMVISSDDPAMFGAKGLSYDFYEVFMGIGGMKADLRTLKQLAMNSIAYSTLLESEKNTFMEIWKKRWDKFIADVATK | – | 14 mU/mL | 6.1 | – | –
3 | 35.9% | – | K16A: ADA2 variant SEQ ID NO:16 (protein, human ADA2 K13A, mature numbering) IDETRAHLLLKEAMMRLGGRLVLNTKEELANERLMTLKIAEMKEAMRTLIFPPSMHFFQAKHLIERSQVFNILRMMPKGAALHLHDIGIVTMDWLVRNVTYRPHCHICFTPRGIMQFRFAHPTPRPSEKCSKWILLEDYRKRVQNVTEFDDSLLRNFTLVTQHPEVIYTNQNVVWSKFETIFFTISGLIHYAPVFRDYVFRSMQEFYEDNVLYMEIRARLLPVYELSGEHHDEEWSVKTYQEVAQKFVETHPEFIGIKIIYSDHRSKDVAVIAESIRMAMGLRIKFPTVVAGFDLVGHEDTGHSLHDYKEALMIPAKDGVKLPYFFHAGETDWQGTSIDRNILDALMLNTTRIGHGFALSKHPAVRTYSWKKDIPIEVCPISNQVLKLVSDLRNHPVATLMATGHPMVISSDDPAMFGAKGLSYDFYEVFMGIGGMKADLRTLKQLAMNSIKYSTLLESEKNTFMEIWKKRWDKFIADVATK | – | 28 mU/mL | 12.2 | – | –
4 | 24% | – | K14D: ADA2 variant SEQ ID NO:14 (protein, human ADA2 K11D, mature numbering) IDETRAHLLLDEKMMRLGGRLVLNTKEELANERLMTLKIAEMKEAMRTLIFPPSMHFFQAKHLIERSQVFNILRMMPKGAALHLHDIGIVTMDWLVRNVTYRPHCHICFTPRGIMQFRFAHPTPRPSEKCSKWILLEDYRKRVQNVTEFDDSLLRNFTLVTQHPEVIYTNQNVVWSKFETIFFTISGLIHYAPVFRDYVFRSMQEFYEDNVLYMEIRARLLPVYELSGEHHDEEWSVKTYQEVAQKFVETHPEFIGIKIIYSDHRSKDVAVIAESIRMAMGLRIKFPTVVAGFDLVGHEDTGHSLHDYKEALMIPAKDGVKLPYFFHAGETDWQGTSIDRNILDALMLNTTRIGHGFALSKHPAVRTYSWKKDIPIEVCPISNQVLKLVSDLRNHPVATLMATGHPMVISSDDPAMFGAKGLSYDFYEVFMGIGGMKADLRTLKQLAMNSIKYSTLLESEKNTFMEIWKKRWDKFIADVATK | – | 18.7 mU/mL | 8.1 | – | –
5 | 20.9% | – | K16E: ADA2 variant SEQ ID NO:18 (protein, human ADA2 K13E, mature numbering) IDETRAHLLLKEEMMRLGGRLVLNTKEELANERLMTLKIAEMKEAMRTLIFPPSMHFFQAKHLIERSQVFNILRMMPKGAALHLHDIGIVTMDWLVRNVTYRPHCHICFTPRGIMQFRFAHPTPRPSEKCSKWILLEDYRKRVQNVTEFDDSLLRNFTLVTQHPEVIYTNQNVVWSKFETIFFTISGLIHYAPVFRDYVFRSMQEFYEDNVLYMEIRARLLPVYELSGEHHDEEWSVKTYQEVAQKFVETHPEFIGIKIIYSDHRSKDVAVIAESIRMAMGLRIKFPTVVAGFDLVGHEDTGHSLHDYKEALMIPAKDGVKLPYFFHAGETDWQGTSIDRNILDALMLNTTRIGHGFALSKHPAVRTYSWKKDIPIEVCPISNQVLKLVSDLRNHPVATLMATGHPMVISSDDPAMFGAKGLSYDFYEVFMGIGGMKADLRTLKQLAMNSIKYSTLLESEKNTFMEIWKKRWDKFIADVATK | – | 16.3 mU/mL | 7.1 | – | –
6 | – | 65% | H267N: ADA2 variant SEQ ID NO:36 (protein, human ADA2 H264N, mature numbering) IDETRAHLLLKEKMMRLGGRLVLNTKEELANERLMTLKIAEMKEAMRTLIFPPSMHFFQAKHLIERSQVFNILRMMPKGAALHLHDIGIVTMDWLVRNVTYRPHCHICFTPRGIMQFRFAHPTPRPSEKCSKWILLEDYRKRVQNVTEFDDSLLRNFTLVTQHPEVIYTNQNVVWSKFETIFFTISGLIHYAPVFRDYVFRSMQEFYEDNVLYMEIRARLLPVYELSGEHHDEEWSVKTYQEVAQKFVETHPEFIGIKIIYSDNRSKDVAVIAESIRMAMGLRIKFPTVVAGFDLVGHEDTGHSLHDYKEALMIPAKDGVKLPYFFHAGETDWQGTSIDRNILDALMLNTTRIGHGFALSKHPAVRTYSWKKDIPIEVCPISNQVLKLVSDLRNHPVATLMATGHPMVISSDDPAMFGAKGLSYDFYEVFMGIGGMKADLRTLKQLAMNSIKYSTLLESEKNTFMEIWKKRWDKFIADVATK | – | – | – | 50.4 mU/ml | 21.9 ΔA/min
7 | 14.6% | – | K14A: ADA2 variant SEQ ID NO:13 (protein, human ADA2 K11A, mature numbering) IDETRAHLLLAEKMMRLGGRLVLNTKEELANERLMTLKIAEMKEAMRTLIFPPSMHFFQAKHLIERSQVFNILRMMPKGAALHLHDIGIVTMDWLVRNVTYRPHCHICFTPRGIMQFRFAHPTPRPSEKCSKWILLEDYRKRVQNVTEFDDSLLRNFTLVTQHPEVIYTNQNVVWSKFETIFFTISGLIHYAPVFRDYVFRSMQEFYEDNVLYMEIRARLLPVYELSGEHHDEEWSVKTYQEVAQKFVETHPEFIGIKIIYSDHRSKDVAVIAESIRMAMGLRIKFPTVVAGFDLVGHEDTGHSLHDYKEALMIPAKDGVKLPYFFHAGETDWQGTSIDRNILDALMLNTTRIGHGFALSKHPAVRTYSWKKDIPIEVCPISNQVLKLVSDLRNHPVATLMATGHPMVISSDDPAMFGAKGLSYDFYEVFMGIGGMKADLRTLKQLAMNSIKYSTLLESEKNTFMEIWKKRWDKFIADVATK | – | 11.4 mU/mL | 4.9 | – | –
8 | 86.3% | – | K16D: ADA2 variant SEQ ID NO:17 (protein, human ADA2 K13D, mature numbering) IDETRAHLLLKEDMMRLGGRLVLNTKEELANERLMTLKIAEMKEAMRTLIFPPSMHFFQAKHLIERSQVFNILRMMPKGAALHLHDIGIVTMDWLVRNVTYRPHCHICFTPRGIMQFRFAHPTPRPSEKCSKWILLEDYRKRVQNVTEFDDSLLRNFTLVTQHPEVIYTNQNVVWSKFETIFFTISGLIHYAPVFRDYVFRSMQEFYEDNVLYMEIRARLLPVYELSGEHHDEEWSVKTYQEVAQKFVETHPEFIGIKIIYSDHRSKDVAVIAESIRMAMGLRIKFPTVVAGFDLVGHEDTGHSLHDYKEALMIPAKDGVKLPYFFHAGETDWQGTSIDRNILDALMLNTTRIGHGFALSKHPAVRTYSWKKDIPIEVCPISNQVLKLVSDLRNHPVATLMATGHPMVISSDDPAMFGAKGLSYDFYEVFMGIGGMKADLRTLKQLAMNSIKYSTLLESEKNTFMEIWKKRWDKFIADVATK | – | 67.3 mU/mL | 29.3 | – | –
